# According to US8889621B2, “Inhibiting binding of FGF23 to the binary FGFR-Klotho complex for the treatment of hypophosphatemia” (New York University, priority 2009, dated 2014):
# “Also recorded” adds a separate entry of the source.
# T1: binary FGFR1c-Klotho complex (UniProt O35082+P11362)
# T1 construct: The ectodomain of murine Klotho (A35 to K982) was purified from culture media; FLAG (C); made in house; host or cells: E. coli (FGFR1c, FGF23); HEK293 (Klotho ectodomain)
# T1 sequence (P11362 142-365): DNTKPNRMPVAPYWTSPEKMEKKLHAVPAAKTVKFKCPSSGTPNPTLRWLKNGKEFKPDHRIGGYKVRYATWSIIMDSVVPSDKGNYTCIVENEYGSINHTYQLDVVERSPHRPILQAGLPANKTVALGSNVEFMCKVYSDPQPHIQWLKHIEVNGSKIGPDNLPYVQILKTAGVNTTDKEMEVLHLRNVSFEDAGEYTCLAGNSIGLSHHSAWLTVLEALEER
# T1 sequence (O35082 35-982): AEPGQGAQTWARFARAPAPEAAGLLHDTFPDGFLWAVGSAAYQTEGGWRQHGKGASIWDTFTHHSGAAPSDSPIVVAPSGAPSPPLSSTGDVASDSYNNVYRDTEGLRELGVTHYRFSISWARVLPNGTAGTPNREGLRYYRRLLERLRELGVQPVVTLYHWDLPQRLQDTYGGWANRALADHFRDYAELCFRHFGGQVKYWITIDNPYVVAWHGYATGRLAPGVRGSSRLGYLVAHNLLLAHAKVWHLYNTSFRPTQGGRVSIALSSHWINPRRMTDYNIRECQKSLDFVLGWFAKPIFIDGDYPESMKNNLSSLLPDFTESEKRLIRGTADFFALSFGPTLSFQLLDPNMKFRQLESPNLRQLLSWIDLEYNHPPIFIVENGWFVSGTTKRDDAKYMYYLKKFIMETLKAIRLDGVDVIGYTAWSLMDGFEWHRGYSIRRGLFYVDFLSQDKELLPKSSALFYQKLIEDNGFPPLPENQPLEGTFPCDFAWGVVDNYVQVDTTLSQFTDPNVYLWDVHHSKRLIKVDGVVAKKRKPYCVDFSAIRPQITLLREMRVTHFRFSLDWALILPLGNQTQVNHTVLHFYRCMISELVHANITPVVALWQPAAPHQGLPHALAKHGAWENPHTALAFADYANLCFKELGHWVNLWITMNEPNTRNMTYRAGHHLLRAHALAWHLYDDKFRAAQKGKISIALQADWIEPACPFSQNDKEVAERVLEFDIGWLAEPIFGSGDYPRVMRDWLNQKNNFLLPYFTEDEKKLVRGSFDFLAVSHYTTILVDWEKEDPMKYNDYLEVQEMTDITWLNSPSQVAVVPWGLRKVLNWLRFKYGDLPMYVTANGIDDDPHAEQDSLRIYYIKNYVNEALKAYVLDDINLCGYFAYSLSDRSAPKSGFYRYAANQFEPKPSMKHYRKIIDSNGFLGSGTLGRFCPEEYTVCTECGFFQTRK
# T2: FGFR1c (Homo sapiens, UniProt P11362)
# T2 construct: made in house; host or cells: E. coli
# T2 sequence (P11362 142-365): T1 sequence (P11362 142-365)
# B1: Klotho: ectodomain of murine Klotho (A35 to K982) purified from HEK293 culture media (protein)
# chain: T1 sequence (O35082 35-982)
# modifications: left off: small tags and cut ends
# notes: ectodomain of murine Klotho (A35 to K982) purified from HEK293 culture media
# What was measured:
# [1] = biological target: T1, binary FGFR1c-Klotho complex; experiment: SPR competition: FGFR1c-Klotho binding to immobilized FGF23^28-251; parameters: species or system human FGFR1c, murine Klotho; settings: FGF21^168-209 at molar ratios of 6:1 and 10:1
# Protocol: A variety of interaction or binding assays can be used to determine that an agent specifically binds the binary FGFR-Klotho complex, such as the SPR interaction analysis described below. One aspect of the present invention utilizes SPR analysis of FGF23 protein/peptide binding to the binary FGFR-Klotho complex. The SPR analysis involved FGF23 protein/peptide immobilization by amine coupling on flow channels of a chip. Proteins were injected over the chip at a flow rate of 50 μl min^−1, and at the end of each protein injection (180 s), HBS-EP buffer (10 mM HEPES-NaOH, pH 7.4, 150 mM NaCl, 3 mM EDTA, 0.005% (v/v) polysorbate 20; 50 μl min^−1) was flowed over the chip to monitor dissociation for 180 s. The chip surface was then regenerated by injecting 50 μl of 2.0 M NaCl in 10 mM sodium acetate, pH 4.5. […] For each protein injection over a FGF23 protein/peptide chip, the nonspecific responses from the FHF1B control flow channel were subtracted from the responses recorded for the flow channel onto which FGF23 protein/peptide was immobilized. To analyze FGF23 binding to the binary FGFR1c-Klotho complex, FGF23^28-251 was coupled to a chip, and increasing concentrations of 1:1 complex of the ectodomains of FGFR1c and Klotho in HBS-EP buffer were passed over the chip. To measure binding of the C-terminal tail of FGF23 to the binary FGFR1c-Klotho complex, FGF23^180-251 was immobilized on a chip, and increasing concentrations of 1:1 complex of the ectodomains of FGFR1c and Klotho in HBS-EP buffer were passed over the chip. To examine whether the C-terminal tail of FGF23 can compete with full-length FGF23 for binding to the binary FGFR1c-Klotho complex, FGF23^28-251 was immobilized on a chip. Increasing concentrations of FGF23^180-251 were mixed with a fixed concentration of 1:1 complex of the ectodomains of FGFR1c and Klotho in HBS-EP buffer, and the mixtures were passed over the chip. As a control, competition of FGF23 in solution with immobilized FGF23 for binding to the binary FGFR1c-Klotho complex was studied. Increasing concentrations of FGF23^28-251 were mixed with a fixed concentration of 1:1 complex of the ectodomains of FGFR1c and Klotho in HBS-EP buffer, and the mixtures were passed over the FGF23 chip. Competition of the FGF23 C-terminal tail peptide with full-length FGF23 for binding to the binary FGFR1c-Klotho complex was also studied using the “reverse” SPR assay format, where FGF23^180-251 was immobilized on a chip and mixtures of a fixed concentration of 1:1 complex of the ectodomains of FGFR1c and Klotho with increasing concentrations of FGF23^28-251 were passed over the chip. As a control, competition of FGF23 C-terminal tail peptide in solution with immobilized FGF23 C-terminal tail peptide for binding to the binary FGFR1c-Klotho complex was analyzed. Increasing concentrations of FGF23^180-251 were mixed with a fixed concentration of 1:1 complex of the ectodomains of FGFR1c and Klotho in HBS-EP buffer, and the mixtures were passed over the FGF23^180-251 chip. To verify the specificity of the interaction between the FGF23 C-terminal tail and the FGFR1c-Klotho complex, FGF23^28-251 was immobilized on a chip. Increasing concentrations of FGF21^168-209 were mixed with a fixed concentration of 1:1 complex of the ectodomains of FGFR1c and Klotho in HBS-EP buffer, and the mixtures were passed over the chip. In addition, the ability of the FGF23 C-terminal tail peptide to interfere with binary complex formation between βKlotho and either FGF19 or FGF21 was tested, as was its ability to interfere with ternary complex formation between βKlotho, FGFR, and either FGF19 or FGF21. FGF19^23-216 and FGF21^29-209 were immobilized on two flow channels of a chip. FGF23^180-251 and the ectodomain of βKlotho were mixed at a molar ratio of 2:1, and the mixture was injected over the chip. Next, FGF23^180-251 and the 1:1 complex of the ectodomains of FGFR1c and βKlotho were mixed at a molar ratio of 10:1, and the mixture was passed over the FGF19/FGF21 chip. […]
# FGFR1c = biological target: T2, FGFR1c; experiment: SPR: FGFR1c ectodomain passed over immobilized Klotho ectodomain; format: binding; settings: 25° C., HBS-EP buffer, read-out: dissociation constant (KD) of the FGFR1c-Klotho interaction
# Protocol: Surface plasmon resonance (SPR) spectroscopy experiments were performed on a Biacore 2000 instrument (Biacore AB), and FGF23-FGFR1c-Klotho interactions were studied at 25° C. in HBS-EP buffer (10 mM HEPES-NaOH, pH 7.4, 150 mM NaCl, 3 mM EDTA, 0.005% (v/v) polysorbate 20). Proteins were immobilized by amine coupling on flow channels of research grade CM5 chips (Biacore AB). Proteins were injected over a CM5 chip at a flow rate of 50 μl min^−1, and at the end of each protein injection (180 s), HBS-EP buffer (50 μl min^−1) was flowed over the chip to monitor dissociation for 180 s. The chip surface was then regenerated by injecting 50 μl of 2.0 M NaCl in 10 mM sodium acetate, pH 4.5. […] For each protein injection over a Klotho chip, the nonspecific responses from the β-glucuronidase control flow channel were subtracted from the responses recorded for the Klotho flow channel. Similarly, for each protein injection over a FGF chip, the nonspecific responses from the FHF1B control flow channel were subtracted from the responses recorded for the FGF flow channel. […]
# To analyze Klotho binding to FGFR1c, Klotho ectodomain was immobilized on a chip (˜29-35 fmole/mm^2 of flow channel). […] Maximal equilibrium responses were plotted against the concentrations of FGFR1c ectodomain (FIG. 1B), and from the fitted saturation binding curve the equilibrium dissociation constant (KD) was calculated. […]
Molecule,inhibition of FGFR1c-Klotho binding to immobilized FGF23^28-251 [1],Kd (FGFR1c) [nM]
"FGF21^168-209: 42-amino acid long C-terminal tail of FGF21 (P168 to S209), expressed in E. coli (PGLPPALPEPPGILAPQPPDVGSSDPLSMVGPSQGRSPSYAS; left off: small tags and cut ends) [reference compound]",failed to inhibit; also recorded: no inhibition,
B1,,72
